Substitutions are numbered along the chain they refer to.
T1: Dsk2-UBL D64K (Saccharomyces cerevisiae, UniProt P48510 1-75, D64K)
T1 sequence: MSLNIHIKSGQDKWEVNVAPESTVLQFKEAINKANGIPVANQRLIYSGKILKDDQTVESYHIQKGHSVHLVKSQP

T2: Dsk2 (full length) (Saccharomyces cerevisiae, UniProt P48510 1-373)
T2 sequence (looked up): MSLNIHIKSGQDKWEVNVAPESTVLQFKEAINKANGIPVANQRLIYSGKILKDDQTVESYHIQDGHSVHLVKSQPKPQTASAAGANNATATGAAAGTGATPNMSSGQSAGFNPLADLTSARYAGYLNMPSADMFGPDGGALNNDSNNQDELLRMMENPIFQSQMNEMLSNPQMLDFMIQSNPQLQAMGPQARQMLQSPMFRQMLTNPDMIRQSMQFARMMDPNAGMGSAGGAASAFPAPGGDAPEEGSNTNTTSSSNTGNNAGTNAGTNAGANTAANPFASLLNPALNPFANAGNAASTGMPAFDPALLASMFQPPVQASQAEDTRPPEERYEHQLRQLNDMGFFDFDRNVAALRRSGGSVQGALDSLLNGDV

B1: Dsk2-UBL (domain or fragment, Saccharomyces cerevisiae)
chain: T1 sequence with K64D
B2: Rpn10 C-terminal construct Rpn10_(204-268) (domain or fragment, Saccharomyces cerevisiae, UniProt P38886 204-268, looked up)
chain: GSGGDSDANGTFMDFGVDPSMDPELAMALRLSMEEEQQRQERLRQQQQQQDQPEQSEYPEQHQDK

Tests used:
[1] = biological target: B2; assay: NMR titration
[2] = biological target: B1; assay: NMR titration
[3] = biological target: T1, Dsk2-UBL D64K; assay: NMR titration
[4] = biological target: B1; assay: SPR
[5] = biological target: T2, Dsk2 (full length); assay: SPR
[6] = biological target: T1, Dsk2-UBL D64K; assay: SPR

Row | stoichiometry N [1] | Kd [2] [µM] | Kd [3] [µM] | Kd [4] [µM] | Kd [5] [µM] | Kd [6] [µM] | Binder
1 | 1 | – | – | – | – | – | B1
2 | – | 3.5 ± 0.7 | 39 ± 17 | 9 | 12.5 | 31.8 | B2

— article PMC2807407 (Molecular cell, 2009)
